Measurements published in PMC9980635 (mAbs, 2023).

Experiments:
[1] = molecular target: cynoLAMP1 presented on the surface of engineered cell lines (Macaca fascicularis, UniProt A0A2K5UUW0); experiment: flow cytometry on cells
[2] = molecular target: human LAMP-1 extracellular domain (Homo sapiens, UniProt P11279); experiment: BLI
[3] = molecular target: cynomolgus LAMP-1 extracellular domain (Macaca fascicularis, UniProt A0A2K5UUW0); experiment: BLI
[4] = molecular target: murine LAMP-1 extracellular domain (Mus musculus, UniProt P11438); experiment: BLI
Sequence of murine LAMP-1 extracellular domain (P11438 25-370): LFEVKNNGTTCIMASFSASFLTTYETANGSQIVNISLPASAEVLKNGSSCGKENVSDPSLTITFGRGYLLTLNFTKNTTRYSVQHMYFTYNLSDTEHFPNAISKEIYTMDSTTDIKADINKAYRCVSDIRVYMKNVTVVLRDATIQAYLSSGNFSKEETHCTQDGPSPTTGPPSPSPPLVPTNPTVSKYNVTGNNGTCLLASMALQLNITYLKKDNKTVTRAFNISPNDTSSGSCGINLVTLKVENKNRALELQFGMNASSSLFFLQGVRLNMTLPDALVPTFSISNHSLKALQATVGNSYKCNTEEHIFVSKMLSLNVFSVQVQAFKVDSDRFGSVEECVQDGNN

Sequence of human LAMP-1 extracellular domain (P11279 29-382): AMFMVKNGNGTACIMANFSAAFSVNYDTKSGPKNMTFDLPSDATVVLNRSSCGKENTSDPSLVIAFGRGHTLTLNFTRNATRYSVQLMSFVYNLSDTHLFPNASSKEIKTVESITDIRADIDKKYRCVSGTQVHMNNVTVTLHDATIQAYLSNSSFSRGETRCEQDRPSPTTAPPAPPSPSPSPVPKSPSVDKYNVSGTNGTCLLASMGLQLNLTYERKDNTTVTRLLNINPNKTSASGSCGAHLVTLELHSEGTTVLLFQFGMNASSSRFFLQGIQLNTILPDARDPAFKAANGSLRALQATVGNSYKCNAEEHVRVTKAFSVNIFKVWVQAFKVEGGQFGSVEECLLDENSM

binding result [1]: no binding | Kd [2]: 12 nM | binding result [3]: no binding (tested: 200 nM) | binding result [4]: no binding (tested: 200 nM)
B1: mAb B (antibody, V domains shown)
VH: QVQLVQSGAEVKKPGSSVKVSCKASGYIFTNYNIHWVKKSPGQGLEWIGAIYPGNGDAPYSQKFQGKATLTADTSTSTTYMELSSLRSEDTAVYYCVRANWDVAFAYWGQGTLVTVSS
VL: DIQMTQSPSSLSASVGDRVTITCKASQDIDRYMAWYQDKPGKAPRLLIHDTSTLQSGVPSRFSGSGSGRDYTLTISNLEPEDFATYYCLQYDNLWTFGGGTKVEIK
